Results from PMC6351828.
Positions count from the first letter of the chain named. In names and notes the source's numbering stands.

B1: Disrupted‐in‐schizophrenia‐1 (DISC1)‐Flag, wild type, Q9NRI5 F210A; S211A; F212A; I213A (protein)
chain: MPGGGPQGAPAAAGGGGVSHRAGSRDCLPPAACFRRRRLARRPGYMRSSTGPGIGFLSPAVGTLFRFPGGVSGEESHHSESRARQCGLDSRGLLVRSPVSKSAAAPTVTSVRGTSAHFGIQLRGGTRLPDRLSWPCGPGSAGWQQEFAAMDSSETLDASWEAACSDGARRVRAAGSLPSAELSSNSCSPGCGPEVPPTPPGSHSAFTSSAAAARLSLGSAGERGEAEGCPPSREAESHCQSPQEMGAKAASLDGPHEDPRCLSRPFSLLATRVSADLAQAARNSSRPERDMHSLPDMDPGSSSSLDPSLAGCGGDGSSGSGDAHSWDTLLRKWEPVLRDCLLRNRRQMEVISLRLKLQKLQEDAVENDDYDKAETLQQRLEDLEQEKISLHFQLPSRQPALSSFLGHLAAQVQAALRRGATQQASGDDTHTPLRMEPRLLEPTAQDSLHVSITRRDWLLQEKQQLQKEIEALQARMFVLEAKDQQLRREIEEQEQQLQWQGCDLTPLVGQLSLGQLQEVSKALQDTLASAGQIPFHAEPPETIRSLQERIKSLNLSLKEITTKVCMSEKFCSTLRKKVNDIETQLPALLEAKMHAISGNHFWTAKDLTEEIRSLTSEREGLEGLLSKLLVLSSRNVKKLGSVKEDYNRLRREVEHQETAYETSVKENTMKYMETLKNKLCSCKCPLLGKVWEADLEACRLLIQSLQLQEARGSLSVEDERQMDDLEGAAPPIPPRLHSEDKRKTPLKVLEEWKTHLIPSLHCAGGEQKEESYILSAELGEKCEDIGKKLLYLEDQLHTAIHSHDEDLIQSLRRELQMVKETLQAMILQLQPAKEAGEREAAASCMTAGVHEAQA
B2: Disrupted‐in‐schizophrenia‐1 (DISC1)‐Flag, wild type, Q9NRI5 W327A; D328A; T329A; L330A (protein)
chain: B1 chain with A210F, A211S, A212F, A213I, W326A, D327A, T328A, L329A
B3: Disrupted‐in‐schizophrenia‐1 (DISC1)‐Flag, wild type, Q9NRI5 Y646A; N647A; R648A; L649A (protein)
chain: B1 chain with A210F, A211S, A212F, A213I, Y646A, N647A, R648A, L649A

Columns and labels:
[1] = molecular target: Purified recombinant LC3 protein, Q9GZQ8; test: ELISA; details: chain shown with the change, read off a plot
[2] = molecular target: LC3‐GFP, Q9GZQ8; test: co-immunoprecipitation (anti-GFP agarose) with quantified immunoblot; details: chain shown with the change; HeLa cells co-transfected with LC3-GFP and DISC1-Flag constructs; parent: 1.0; read off a plot

Binder | response ([1]; LC3B 10 nM, parent: est. 0.68) | response ([1]; LC3B 50 nM, parent: est. 1.3) | response ([1]; LC3B 100 nM, parent: est. 2.4) | ratio to parent [2]
PGSHSAFTSSAAAARLSLGS [DISC1 FSFI peptide (a.a.200–219) F210A; S211A; F212A; I213A] | 0.1 OD (450 nm) | 0.12 OD (450 nm) | 0.12 OD (450 nm) | 
B1 |  |  |  | 0.21
B2 |  |  |  | 0.9
B3 |  |  |  | 1.1
